Experimental data as given in PMC10104900 (The Journal of Clinical Investigation, 2023).

Experiments:
[1] = molecular target: recombinant FL spike B.1.617.2 Delta, stabilized by 2P mutations (SARS-CoV-2, B.1.617.2 Delta, strain)
[2] = molecular target: recombinant FL spike P.1 Gamma, stabilized by 2P mutations (SARS-CoV-2, P.1 Gamma, strain)
[3] = molecular target: recombinant FL spike B.1.1.7 Alpha, stabilized by 2P mutations (SARS-CoV-2 B.1.1.7 Alpha, strain)
[4] = molecular target: recombinant FL spike B.1.351 Beta, stabilized by 2P mutations (SARS-CoV-2, B.1.351 Beta, strain)
[5] = molecular target: T1, recombinant FL spike WT-6P (SARS-CoV-2 WT (Wuhan-Hu-1), UniProt P0DTC2, stabilised, biotin (EZ-Link Sulfo-NHS-Biotin) in the BLI experiments); assay: ELISA; conditions: both partners purified
[6] = molecular target: T1, recombinant FL spike WT-6P; assay: BLI; conditions: both partners purified

B1: S451-1140 (antibody, V domains shown)
VH: EVQLVESGGGLVPPGGSLRLSCAASGFIFSNYAMTWVRQAPGKGLEWVSAISGGGGSTDYADSVKGRFTISRDNSKNTLYLQMNSLRAEDTAVYYCAKDLFGSGWSLFDNWGQGTLVTVS
VL: not shown
- binding result [1]: binds
- binding result [2]: binds
- binding result [3]: binds
- binding result [4]: binds

B2: S626-161 (antibody, V domains shown)
VH: QLQLQESGPGLVKPSEALSLTCTVSGGSISTSNYYWGWIRQPPGKGLEWIGSIYYRGGTHYNPSLKTRVTISVDTSKNQFSLKLSSVTAADTAVYYCARHTYFYDIVGAAVWEPFDIWGQGTMVTVSS
VL: not shown
- binding result [1]: binds
- binding result [2]: binds
- binding result [3]: binds
- binding result [4]: binds

B3: S728-1157 IgG (antibody, V domains shown)
VH: EVQLVESGGGLVQPGGSLRLSCAASGLLVSRNYMNWVRQAPGKGLEWVSIIYSGGSTFYADSVEGRFTISRDESKNTLYLQMNSLRTDDTAVYYCARDLSDYGGIDCWGQGTLVTVSS
VL: YELTQPLSVSMALGQTARISCGGDNVGSQNVHWYQQRPGQAPVLVIYRDSNRPSGIPERFSGSKSGNTATLTISRAQAGDEADYYCQVWDSSTVAFGGGTKLTVL
notes: copies: 2 + 2
- binding result [5]: binds

B4: S728-1157 Fab (Fab, V domains shown)
VH: EVQLVESGGGLVQPGGSLRLSCAASGLLVSRNYMNWVRQAPGKGLEWVSIIYSGGSTFYADSVEGRFTISRDESKNTLYLQMNSLRTDDTAVYYCARDLSDYGGIDCWGQGTLVTVSS
VL: YELTQPLSVSMALGQTARISCGGDNVGSQNVHWYQQRPGQAPVLVIYRDSNRPSGIPERFSGSKSGNTATLTISRAQAGDEADYYCQVWDSSTVAFGGGTKLTVL
- binding result [6]: binds
